Results taken from patent US20180022820A1.

Legend:
[1] = target: FcRn (Sino Biological Inc, CT009-H08H) (UniProt P55899); assay: SPR (Biacore X100), FcRn-His captured on anti-His IgG chip, antibody as analyte, steady-state affinity fit; first run
[2] = target: FcRn (Sino Biological Inc, CT009-H08H) (UniProt P55899); assay: SPR (Biacore X100), FcRn-His captured on anti-His IgG chip, antibody as analyte, steady-state affinity fit; mean of the two runs
[3] = target: FcRn (Sino Biological Inc, CT009-H08H) (UniProt P55899); assay: SPR (Biacore X100), FcRn-His captured on anti-His IgG chip, antibody as analyte, steady-state affinity fit; second run

Chain of UniProt P55899 (P55899 24-297 limits assumed, chain 1 of 2): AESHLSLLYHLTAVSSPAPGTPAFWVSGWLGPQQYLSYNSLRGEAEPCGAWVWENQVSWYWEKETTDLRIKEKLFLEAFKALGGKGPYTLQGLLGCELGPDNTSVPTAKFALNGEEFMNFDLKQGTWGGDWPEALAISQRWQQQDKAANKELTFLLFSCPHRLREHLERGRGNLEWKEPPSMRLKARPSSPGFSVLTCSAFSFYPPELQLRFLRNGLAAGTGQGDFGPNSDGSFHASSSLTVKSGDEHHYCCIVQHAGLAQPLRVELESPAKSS
Chain of UniProt P55899 (P61769 21-119 limits assumed, chain 2 of 2, further chain): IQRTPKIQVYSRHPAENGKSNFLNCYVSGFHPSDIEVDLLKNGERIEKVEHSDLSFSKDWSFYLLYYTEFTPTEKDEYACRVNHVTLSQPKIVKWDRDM

Work on “MIL41: a PERJETA sample as prepared by the inventors, which is in consistence with the amino acid sequence of PERJETA (antibody)” yielded a Kd [1] of 534 nM, a Kd [2] of 492 nM and a Kd [3] of 450 nM.
